Measurements taken from EP4796681A2 (Daiichi Sankyo Co., Ltd., dated 2026).

Columns and labels:
[1] = target: T1, Chymotrypsin (Worthington Biochemical Corp.) (Bos taurus (Bovine), UniProt P00766 1-13; P00766 16-146; P00766 149-245); test: ELISA, chymotrypsin coated on plate, detection by HRP-conjugated S-Tag antibody
[2] = target: T1, Chymotrypsin (Worthington Biochemical …); test: cell-based or functional assay

B1: α-chymotrypsin-binding peptide No. 2 (SPINK2 mutant) (designed binder)
chain: DPQFGLFSKYRTPNCMRHRRHFCTMVYKPVCGSDMSTYANECTLCMKIREGGHNIKIIRNGPC
notes: Expressed in E. coli Origami B (DE3) as thioredoxin/His fusion, thioredoxin tag cleaved by thrombin; mainly monomer; also called clone 2; not shown: vector-derived N-terminal residues left after thrombin cleavage of the pET 32a (varied) fusion, including the S-tag used
EC50 [1]: 18.3 nM | IC50 of chymotrypsin inhibitory activity (Pierce Quantitative Protease Assay Kit) [2]: 815 nM

B2: α-chymotrypsin-binding peptide No. 6 (SPINK2 mutant) (designed binder)
chain: DPQFGLFSKYRTPNCRRWLLPWCTYKYKPVCGSDMSTYANECTLCMKIREGGHNIKIIRNGPC
notes: Expressed in E. coli Origami B (DE3) as thioredoxin/His fusion, thioredoxin tag cleaved by thrombin; mainly monomer; also called clone 6; not shown: vector-derived N-terminal residues left after thrombin cleavage of the pET 32a (varied) fusion, including the S-tag used
EC50 [1]: 17.8 nM | IC50 of chymotrypsin inhibitory activity (Pierce Quantitative Protease Assay Kit) [2]: 374 nM
